Results reported in the Human Domainome abundance scans (Beltran et al. 2025).

B1: Homeobox expressed in ES cells 1, residues 110 to 165; numbered along this chain, Q9UBX0 (parent)
chain: RPRTAFTQNQIEVLENVFRVNCYPGIDIREDLAQKLNLEEDRIQIWFQNRRAKLKR
B2: RanBP-type and C3HC4-type zinc finger-containing protein 1, residues 369 to 411; numbered along this chain, Q9BYM8 (parent)
chain: YHCKTPDCKGWCFFEDDVNEFTCPVCFHVNCLLCKAIHEQMNC

Variants of: B1
Test: abundance fitness (aPCA) (normalised: wild type 0, dead -1); higher = more abundant; growth selection in yeast, the domain comes from the species named
Conditions: Homo sapiens

Abundance fitness: each site, then its substitutions
W46: H -0.58, V -0.928, T -0.721, C -1.15, Y 0.48, S -0.595, D -0.428, F -0.547, G -1.07, K -0.925, E -0.751, L -0.895, P -0.361, A -0.693
R50: D -0.443, M -0.38, T -0.236, Q 0.153, H -0.242, S -0.666, P -0.954, L -0.818, E 0.178, K -0.39, G -0.782, N -0.378, C -0.614, A -0.206, V -0.727
L54: C -0.031, A -0.34, W -0.205, D -0.071, P 0.222, Q 0.01, R -0.596, I 0.074, F 0.312, K -0.119, V -0.082, M -0.195, E 0.203, G 0.319
I45: Y 0.019
R51: Y -0.782, G -0.671, M -0.109, S -0.491, A -0.424, K -0.577, I -0.336, N -0.131, T -0.301, Q -0.43, E -0.632, D 0.168, L -0.752, C -0.368, V -0.243
N49: G -0.527, H -0.232, L -0.19, T -0.019, W -0.471, K -0.102, C -0.425, D 0.044, S -0.198, R -0.291, P -0.648, I -0.46, A 0.217, M 0.052, F -0.604, Q -0.124, E 0.43
Q48: K 0.114, H -0.287, R 0.142, T 0.299, V -0.026, N -0.307, E -0.098, S -0.001, G -0.461, A 0.233, P -0.658, C -0.466, M -0.073, I -0.23
R56: V -0.171, G 0.104, D 0.686, W 0.617, C 0.033
K55: P -0.042, Y -0.479, V -0.672, L -0.583, H -0.27, G -0.302, A -0.451, M -0.181, I 0.143, R -0.369, E 0.334, F -0.349, S -0.399, D -0.419, N -0.068
K53: P -0.345, V -0.229, S -0.017, L -0.067, Q 0.267, W -0.405, I -0.156, Y -0.492, N -0.284, T -0.115, M -0.075, D -0.067, G -0.141, R 0.059, F -0.326, C -0.459, E 0.176
A52: M -0.269, K -0.064, F -0.361, L -0.499, R -0.194, E 0.059, T 0.172, W -0.505, C -0.143, S -0.104, D -0.044, H -0.05, G -0.205, V -0.348, N -0.03
F47: R -0.952, L -0.842, W -0.908, G -0.855, V -0.841, E -0.942, I -0.449, D -0.576, C -0.851, A -0.698, Y -0.455, S -0.724

Variants of: B2
Test: as above
Conditions: Homo sapiens

Abundance fitness: each site, then its substitutions
H38: K -0.707, N -0.76
V29: A -0.368, F -0.54, T -0.108
V25: E -0.138, Q -0.17, P -0.76
K4: C -0.201, R 0.021, V 0.051, N -0.134
F21: L -0.45
